Assay results published in article PMC9000958, “Sticks and Stones, a conserved cell surface ligand for the Type IIa RPTP Lar, regulates neural circuit wiring in Drosophila” (eLife, 2022).
Each block holds one molecule with its values, some of them ahead of it.

Experiments:
[1] = target: Sticks and Stones (Sns), ectopically expressed in Tub>Sns embryos (Drosophila); experiment: immunostaining of cells or tissue; live-dissected stage 16 embryos (WT or Tub-GAL4 overexpression) incubated 2 hr at room temperature with AP or AP5 fusion protein supernatants (1x or concentrated), fixed in 4% paraformaldehyde, detected with anti-AP antibody; staining intensity compared with WT embryos
[2] = target: Nephrin or Sns (expressed in Tub>NPHS1 or Tub>Sns embryos); experiment: as above
[3] = target: Lar, ectopically expressed in Tub>Lar embryos (Drosophila) (UniProt P16621); experiment: as above
[4] = target: Lar-Fc fusion protein (Drosophila) (UniProt P16621); experiment: ELISA; ECIA: Fc fusion bait (1x supernatant) captured by anti-human IgG (Fc-specific) on plate; AP5 fusion prey (1x supernatant) pre-clustered with anti-AP:biotin, overnight at room temperature; streptavidin:HRP, TMB, absorbance at 450 nm
[5] = target: T1, human Nephrin, ectopically expressed in Tub>NPHS1 embryos (human, UniProt O60500 23-1241); experiment: immunostaining of cells or tissue; live-dissected stage 16 embryos (WT or Tub-GAL4 overexpression) incubated 2 hr at room temperature with AP or AP5 fusion protein supernatants (1x or concentrated), fixed in 4% paraformaldehyde, detected with anti-AP antibody; staining intensity compared with WT embryos; settings: partners not purified
T1 construct: source: Drosophila embryos, UAS-linked full-length human Nephrin cDNA driven by Tub-GAL4, live-dissected stage 16
T1 sequence (looked up): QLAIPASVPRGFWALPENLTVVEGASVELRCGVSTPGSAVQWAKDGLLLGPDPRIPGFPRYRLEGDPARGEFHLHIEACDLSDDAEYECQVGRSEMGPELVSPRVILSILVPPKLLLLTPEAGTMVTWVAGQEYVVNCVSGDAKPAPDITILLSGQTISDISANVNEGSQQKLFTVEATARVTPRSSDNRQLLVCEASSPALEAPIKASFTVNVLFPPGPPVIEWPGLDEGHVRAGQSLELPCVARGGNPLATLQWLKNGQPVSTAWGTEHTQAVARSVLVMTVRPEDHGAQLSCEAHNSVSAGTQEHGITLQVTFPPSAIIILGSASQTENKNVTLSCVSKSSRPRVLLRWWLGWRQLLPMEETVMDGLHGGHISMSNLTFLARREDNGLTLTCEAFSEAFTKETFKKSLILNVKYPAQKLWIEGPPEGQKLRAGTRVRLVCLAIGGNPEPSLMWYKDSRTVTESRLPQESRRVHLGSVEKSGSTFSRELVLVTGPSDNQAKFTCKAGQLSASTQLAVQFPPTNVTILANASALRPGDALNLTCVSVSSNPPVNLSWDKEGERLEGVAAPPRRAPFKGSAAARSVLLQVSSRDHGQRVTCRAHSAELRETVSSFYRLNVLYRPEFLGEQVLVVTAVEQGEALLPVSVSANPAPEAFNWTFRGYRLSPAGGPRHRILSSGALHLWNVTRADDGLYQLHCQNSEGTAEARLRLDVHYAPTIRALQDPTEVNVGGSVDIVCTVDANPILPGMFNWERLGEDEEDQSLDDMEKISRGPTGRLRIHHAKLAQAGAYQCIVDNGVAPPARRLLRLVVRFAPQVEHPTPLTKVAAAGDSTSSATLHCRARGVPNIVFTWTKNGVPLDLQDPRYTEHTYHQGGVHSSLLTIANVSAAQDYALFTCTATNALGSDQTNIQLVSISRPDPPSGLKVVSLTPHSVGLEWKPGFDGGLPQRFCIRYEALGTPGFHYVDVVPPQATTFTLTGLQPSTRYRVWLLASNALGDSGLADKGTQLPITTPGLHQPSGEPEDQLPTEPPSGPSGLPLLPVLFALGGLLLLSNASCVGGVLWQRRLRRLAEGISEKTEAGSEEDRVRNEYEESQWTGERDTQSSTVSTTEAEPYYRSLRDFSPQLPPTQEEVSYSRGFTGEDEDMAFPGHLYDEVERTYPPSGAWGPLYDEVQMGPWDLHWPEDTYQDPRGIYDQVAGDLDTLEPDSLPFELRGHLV

[6] = target: Sns-AP5 fusion protein (Drosophila); experiment: ELISA; ECIA with mi3 particles: AP5 bait (10 ng/ul) on streptavidin-coated plate; mi3 particles or Fc fusion proteins as prey at 10 ng/ul or 1x, overnight at room temperature; detected with anti-LAR or anti-human IgG (Fc) and anti-mouse:AP, BluePhos, absorbance at 650 nm; mi3 preys were purified, purification of bait not told

- fold increase in staining vs. WT embryos [1]: > 10 fold
Molecule: Lar^HS2-alkaline phosphatase fusion protein (from UniProt P16621 33-1377) (domain or fragment)

- fold increase in staining vs. WT embryos [2]: 18 to 20 fold
Molecule: PTPRF-AP5 fusion protein (from UniProt P10586 30-1263) (domain or fragment)

- fold increase in staining vs. WT embryos [3]: 3 fold
- fold higher binding signal [4]: 3 fold
Molecule: Sns-AP5 fusion protein (domain or fragment)

- fold increase in staining vs. WT embryos [5]: 3 fold
B1: PTPRD-AP5 fusion protein (domain or fragment, human, UniProt P23468 21-1265, looked up)
chain: ETPPRFTRTPVDQTGVSGGVASFICQATGDPRPKIVWNKKGKKVSNQRFEVIEFDDGSGSVLRIQPLRTPRDEAIYECVASNNVGEISVSTRLTVLREDQIPRGFPTIDMGPQLKVVERTRTATMLCAASGNPDPEITWFKDFLPVDTSNNNGRIKQLRSESIGGTPIRGALQIEQSEESDQGKYECVATNSAGTRYSAPANLYVRELREVRRVPPRFSIPPTNHEIMPGGSVNITCVAVGSPMPYVKWMLGAEDLTPEDDMPIGRNVLELNDVRQSANYTCVAMSTLGVIEAIAQITVKALPKPPGTPVVTESTATSITLTWDSGNPEPVSYYIIQHKPKNSEELYKEIDGVATTRYSVAGLSPYSDYEFRVVAVNNIGRGPPSEPVLTQTSEQAPSSAPRDVQARMLSSTTILVQWKEPEEPNGQIQGYRVYYTMDPTQHVNNWMKHNVADSQITTIGNLVPQKTYSVKVLAFTSIGDGPLSSDIQVITQTGVPGQPLNFKAEPESETSILLSWTPPRSDTIANYELVYKDGEHGEEQRITIEPGTSYRLQGLKPNSLYYFRLAARSPQGLGASTAEISARTMQSKPSAPPQDISCTSPSSTSILVSWQPPPVEKQNGIITEYSIKYTAVDGEDDKPHEILGIPSDTTKYLLEQLEKWTEYRITVTAHTDVGPGPESLSVLIRTNEDVPSGPPRKVEVEAVNSTSVKVSWRSPVPNKQHGQIRGYQVHYVRMENGEPKGQPMLKDVMLADAQWEFDDTTEHDMIISGLQPETSYSLTVTAYTTKGDGARSKPKLVSTTGAVPGKPRLVINHTQMNTALIQWHPPVDTFGPLQGYRLKFGRKDMEPLTTLEFSEKEDHFTATDIHKGASYVFRLSARNKVGFGEEMVKEISIPEEVPTGFPQNLHSEGTTSTSVQLSWQPPVLAERNGIITKYTLLYRDINIPLLPMEQLIVPADTTMTLTGLKPDTTYDVKVRAHTSKGPGPYSPSVQFRTLPVDQVFAKNFHVKAVMKTSVLLSWEIPENYNSAMPFKILYDDGKMVEEVDGRATQKLIVNLKPEKSYSFVLTNRGNSAGGLQHRVTAKTAPDVLRTKPAFIGKTNLDGMITVQLPEVPANENIKGYYIIIVPLKKSRGKFIKPWESPDEMELDELLKEISRKRRSIRYGREVELKPYIAAHFDVLPTEFTLGDDKHYGGFTNKQLQSGQEYVFFVLAVMEHAESKMYATSPYSDPVVSMDLDPQPITDEEE
notes: human PTPRD extracellular domain, amplified from a full-length cDNA; also called PTPδ; source: Drosophila S2 cells, transfected, supernatant

- fold increase in binding signal [6]: 7 fold
- fold weaker binding signal than Kirre on Sns-AP5 [6]: 2 fold
B2: 60-mer Lar particles on the mi3 nanoparticle scaffold (Fc fusion)
chain: AHPPEIIRKPQNQGVRVGGVASFYCAARGDPPPSIVWRKNGKKVSGTQSRYTVLEQPGGISILRIEPVRAGRDDAPYECVAENGVGDAVSADATLTIYEGDKTPAGFPVITQGPGTRVIEVGHTVLMTCKAIGNPTPNIYWIKNQTKVDMSNPRYSLKDGFLQIENSREEDQGKYECVAENSMGTEHSKATNLYVKVRRVPPTFSRPPETISEVMLGSNLNLSCIAVGSPMPHVKWMKGSEDLTPENEMPIGRNVLQLINIQESANYTCIAASTLGQIDSVSVVKVQSLPTAPTDVQISEVTATSVRLEWSYKGPEDLQYYVIQYKPKNANQAFSEISGIITMYYVVRALSPYTEYEFYVIAVNNIGRGPPSAPATCTTGETKMESAPRNVQVRTLSSSTMVITWEPPETPNGQVTGYKVYYTTNSNQPEASWNSQMVDNSELTTVSELTPHAIYTVRVQAYTSMGAGPMSTPVQVKAQQGVPSQPSNFRATDIGETAVTLQWTKPTHSSENIVHYELYWNDTYANQAHHKRISNSEAYTLDGLYPDTLYYIWLAARSQRGEGATTPPIPVRTKQYVPGAPPRNITAIATSSTTISLSWLPPPVERSNGRIIYYKVFFVEVGREDDEATTMTLNMTSIVLDELKRWTEYKIWVLAGTSVGDGPRSHPIILRTQEDVPGDPQDVKATPLNSTSIHVSWKPPLEKDRNGIIRGYHIHAQELRDEGKGFLNEPFKFDVVDTLEFNVTGLQPDTKYSIQVAALTRKGDGDRSAAIVVKTPGGVPVRPTVSLKIMEREPIVSIELEWERPAQTYGELRGYRLRWGVKDQALKEEMLSGPQMTKKRFDNLERGVEYEFRVAGSNHIGIGQETVKIFQTPEGTPGGPPSNITIRFQTPDVLCVTWDPPTREHRNGIITRYDVQFHKKIDHGLGSERNMTLRKAVFTNLEENTEYIFRVRAYTKQGAGPFSDKLIVETERDMGRAPMSLQAEATSEQTAEIWWEPVTSRGKLLGYKIFYTMTAVEDLDDWQTKTVGLTESADLVNLEKFAQYAVAIAARFKNGLGRLSEKVTVRIKPEDVPLNLRAHDVSTHSMTLSWSPPIRLTPVNYKISFDAMKVFVDSQGFSQTQIVPKREIILKHYVKTHTINELSPFTTYNVNVSAIPSDYSYRPPTKITVTTQMAAPQPMVKPDFYGVVNGEEILVILPQASEEYGPISHYYLVVVPEDKSNLHKIPDQFLTDDLLPGRNKPERPNAPYIAAKFPQRSIPFTFHLGSGDDYHNFTNRKLEREKRYRIFVRAVVDTPQKHLYTSSPFSEFLSLDMREAPPGERPHRPDPNWPAEPEVSVNRNKDEPE
